This note sets out measurements from paper PMC7926622, “Structure–Function Relationship Study of a Secretory Amoebic Phosphatase: A Computational-Experimental Approach” (International Journal of Molecular Sciences, 2021).

This data set deals with O=P(O)(O)OP(=O)(O)O. Nature of the data set: purified protein. The note with it: pH 9.0 (100 mM Tris-HCl; optimum pH), 5 mM MgSO4, 37 °C, 0.1 µM enzyme.

Excerpt: malachite green phosphate release, Michaelis-Menten fit on rEhHAPp49

On to “rEhHAPp49 (Entamoeba histolytica HM-1:IMSS)”, for which the Km is given as 12 ± 2 µM, the kcat amounted to 0.177 ± 0.00333 s⁻¹ and the catalytic efficiency (kcat/Km) amounted to 14700 M⁻¹ s⁻¹.
